Test results taken from patent US20230108494.

Experiments:
[1] = tested on: T1, library peptide Leu-Leu-Val-Ala-Ala-Ala (negative control)
T1 sequence: LLVAAA

[2] = tested on: T2, TAS1 (Rh-based peptide/peptoid hybrid probe, Leu-Leu-Val-Tyr-Rh110-peptoid)
T2 sequence: LLVY

B1: 20S core particle (20S CP) of the proteasome, purified (enzyme, part only; not given: other 20S alpha and beta subunits)
chain: TTTLAFKFRHGVIVAADSRATAGAYIASQTVKKVIEINPYLLGTMAGGAADCSFWERLLARQCRIYELRNKERISVAAASKLLANMVYQYKGMGLSMGTMICGWDKRGPGLYYVDSEGNRISGATFSVGSGSVYAYGVMDRGYSYDLEVEQAYDLARRAIYQATYRDAYSGGAVNLYHVREDGWIRVSSDNVADLHEKYSGSTP
- percent cleavage by LC/MS, 12 µM peptide with 9 nM 20S CP for one hour [1]: less than 10% of the peptide cleaved
- Rate of Hydrolysis (ΔRFU/min), probe at 30 µM with purified 20S CP [2]: 83.2 ΔRFU/min
